From US20200308267A1 (Boehringer Ingelheim, published 2020)
Where a chain is given by its changes, count along the chain named.

B1: VEGFBII23A03 (VHH, not shown: small tags and cut ends)
VHH: EVQLVESGGGLVQPGDSLKLSCVASGRTFSSYSMGWFRQAQGKEREFVVAISSGGYIYDSVSLQGRFTISRDNTKNTVYLQTPSLKPEDTAVYYCAASRAYGSSRLRLADTYDYWGQGTQVTVSS
B2: VEGFBII23A08 (VHH, not shown: small tags and cut ends)
VHH: B1 VHH with P14T, K19R, S53N, I57K, Q64E, T82I, P83N
B3: VEGFBII61A01 (VHH, not shown: small tags and cut ends)
VHH: B1 VHH with P14A, D16G, K19R, V23A, A24F, I57K, S60A, Q64E, G102A
B4: VEGFBII41G03 (VHH, not shown: small tags and cut ends)
VHH: B1 VHH with V23A, A24F, G35A, Y56F, S60A, Q64E, D72E
B5: VEGFBII30C09 (VHH, not shown: small tags and cut ends)
VHH: B1 VHH with V23I, F29S, K43Q
B6: VEGFBII22E04 (VHH, not shown: small tags and cut ends)
VHH: B1 VHH with F29S, Y56S, G102A
B7: VEGFBII27G07 (VHH, not shown: small tags and cut ends)
VHH: B1 VHH with F29S, K43Q
B8: VEGFBII41B05 (VHH, not shown: small tags and cut ends)
VHH: B1 VHH with D16G, K19R, V23A, A24F, Y56F, S60A, Q64E
B9: VEGFBII23D11 (VHH, not shown: small tags and cut ends)
VHH: B1 VHH with K19R, V23A, A24F, G35A, Y56F, S60A, Q64E
B10: VEGFBII40F02 (VHH, not shown: small tags and cut ends)
VHH: B1 VHH with V23A, A24F, G35A, Y56F, S60A, Q64E, D89G
B11: VEGFBII62F02 (VHH, not shown: small tags and cut ends)
VHH: B1 VHH with V23A, A24F, S52A, S60A, Q64E, N76D
B12: VEGFBII42F11 (VHH, not shown: small tags and cut ends)
VHH: B1 VHH with F29S, M34V
B13: VEGFBII23E05 (VHH, not shown: small tags and cut ends)
VHH: B1 VHH with G8E, F29S
B14: VEGFBII22A11 (VHH, not shown: small tags and cut ends)
VHH: B1 VHH with V23A, A24F, G35A, Y56F, S60A, Q64E
B15: VEGFBII27D08 (VHH, not shown: small tags and cut ends)
VHH: B1 VHH with P14T, K19R, V23A, I57K, Q64E, K75Q, T82I, P83N, S104G
B16: VEGFBII010 (VHH, not shown: small tags and cut ends)
chain: EVQLVESGGGLVQTGDSLRLSCEVSGRTFSSYSMGWFRQAQGKEREFVVAISKGGYKYDSVSLEGRFTISKDNAKNTVYLQINSLKPEDTAVYYCASSRAYGSSRLRLADTYEYWGQGTQVTVSSGGGGSGGGGSGGGGSGGGGSGGGGSGGGGSGGGGSEVQLVESGGGLVQTGDSLRLSCEVSGRTFSSYSMGWFRQAQGKEREFVVAISKGGYKYDSVSLEGRFTISKDNAKNTVYLQINSLKPEDTAVYYCASSRAYGSSRLRLADTYEYWGQGTQVTVSS
B17: VEGFBII42D05 (VHH, not shown: small tags and cut ends)
VHH: EVQLVESGGGLVQPGDSLKLSCAFSGRTFSSYSMGWFRQAQGKEREFVVAISSSGGYIYDSVSLEGRFTISRDNTKNTVYLQTPSLKPEDTAVYYCAASRAYGSSRLRLADTYDYWGQGTQVTVSS
B18: VEGFBII56E11 (VHH, not shown: small tags and cut ends)
VHH: B17 VHH with T91A, V93D
B19: VEGFBII23F11 (VHH, not shown: small tags and cut ends)
VHH: B17 VHH with S54G, V93D
B20: VEGFBII62A09 (VHH, not shown: small tags and cut ends)
VHH: B17 VHH with G10D, F24A
B21: VEGFBII22B07 (VHH, not shown: small tags and cut ends)
VHH: B17 VHH with P14A, K19R, F24A, G56N, I58K, T83I, P84N, A110G
B22: VEGFBII22B06 (VHH, not shown: small tags and cut ends)
VHH: B17 VHH with F24A
B23: VEGFBII40H10 (VHH, not shown: small tags and cut ends)
VHH: B17 VHH with V5M, V93D
B24: VEGFBII23F05 (VHH, not shown: small tags and cut ends)
VHH: B17 VHH with P14A, K19R, F24A, G56N, I58K, T83I, P84N, E89K, A110G
B25: VEGFBII30E07 (VHH, not shown: small tags and cut ends)
VHH: B17 VHH with P14A, K19R, F24A, G56N, I58K, T83I, P84N, A110G, Q121R
B26: VEGFBII22A10 (VHH, not shown: small tags and cut ends)
VHH: B17 VHH with V93D
B27: VEGFBII31C07 (VHH, not shown: small tags and cut ends)
VHH: B17 VHH with P14T, K19R, F24A, R27G, V93D
B28: VEGFBII60A09 (VHH, not shown: small tags and cut ends)
VHH: B17 VHH with K76R, V93D
B29: VEGFBII23G03 (VHH, not shown: small tags and cut ends)
VHH: B17 VHH with S30G, T75S, A110P, D111G
B30: VEGFBII40G07 (VHH, not shown: small tags and cut ends)
VHH: B17 VHH with T78A, V93D
B31: VEGFBII23A09 (VHH, not shown: small tags and cut ends)
VHH: B17 VHH with S30G, T75S, A110P
B32: VEGFBII42A05 (VHH, not shown: small tags and cut ends)
VHH: B17 VHH with T83M, V93D
B33: VEGFBII39E02 (VHH, not shown: small tags and cut ends)
VHH: B17 VHH with S17P, V93D
B34: VEGFBII62D10 (VHH, not shown: small tags and cut ends)
VHH: B17 VHH with G8E, P14A, K19R, F24A, G56N, I58K, T83I, P84N, A110G
B35: VEGFBII39G04 (VHH, not shown: small tags and cut ends)
VHH: B17 VHH with Q3P, P14A, K19R, F24A, G56N, I58K, V62A, T83I, P84N, A110G

How the values were obtained:
[1] = biological target: T1, recombinant human VEGF165 (human, UniProt P15692-4 27-191, biotinylated (Sulfo-NHS-LC-Biotin) in the competition assays); assay: Biacore, periplasmic extract, VEGF165 chip, two phase decay fit; design: unit not given here
T1 construct: also called hVEGF165; rhVEGF165
Description: Dissociation rates of inhibitory VHHs are analyzed on Biacore (Biacore T100 instrument, GE Healthcare). HBS-EP+ buffer is used as running buffer and experiments are performed at 25° C. […] After immobilization, surfaces are deactivated with 10 min injection of 1 M ethanolamine pH8.5. A reference surface is activated and deactivated with respectively EDC/NHS and ethanolamine. Periplasmic extracts of VHHs are injected at a 10-fold dilution in running buffer for 2 min at 45 μl/min and allowed to dissociate for 10 or 15 min. Between different samples, the surfaces are regenerated with regeneration buffer. Data are double referenced by subtraction of the curves on the reference channel and of a blank running buffer injection. […] is evaluated by fitting a two phase decay model in the Biacore T100 Evaluation software v2.0.1.

[2] = biological target: VEGF; assay: cell-based or functional assay
[3] = biological target: VEGF; assay: cell-based or functional assay; remark: listed apart in the source

VEGF, sequence (P15692 whole entry): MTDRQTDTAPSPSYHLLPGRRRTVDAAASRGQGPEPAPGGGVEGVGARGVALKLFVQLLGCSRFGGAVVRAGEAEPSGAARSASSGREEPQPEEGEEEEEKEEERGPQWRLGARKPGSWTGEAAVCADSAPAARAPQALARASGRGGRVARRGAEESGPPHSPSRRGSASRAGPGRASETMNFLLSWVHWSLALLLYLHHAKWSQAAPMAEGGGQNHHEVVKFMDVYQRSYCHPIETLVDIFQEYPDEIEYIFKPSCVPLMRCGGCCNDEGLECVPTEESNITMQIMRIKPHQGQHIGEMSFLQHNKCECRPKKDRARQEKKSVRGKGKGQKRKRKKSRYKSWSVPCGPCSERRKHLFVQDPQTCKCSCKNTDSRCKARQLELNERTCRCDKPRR
T1 sequence (P15692 other isoform, or with tags, fused parts or gaps limits assumed): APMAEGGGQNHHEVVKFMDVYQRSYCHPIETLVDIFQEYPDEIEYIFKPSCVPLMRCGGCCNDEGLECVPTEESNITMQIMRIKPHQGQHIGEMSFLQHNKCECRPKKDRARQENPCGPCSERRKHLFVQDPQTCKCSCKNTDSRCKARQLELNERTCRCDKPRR

| Binder | kd(fast) [1] | kd(slow) [1] | other results |
| --- | --- | --- | --- |
| B1 | 0.015 | 3.2e-05 |  |
| B2 | 0.013 | 5e-05 |  |
| B3 | 0.0074 | 0.00017 |  |
| B4 | 0.012 | 0.00027 |  |
| B5 | 0.015 | 7.6e-05 |  |
| B6 | 0.018 | 0.00011 |  |
| B7 | 0.013 | 3.8e-05 |  |
| B8 | 0.019 | 0.00012 |  |
| B9 | 0.019 | 5.8e-05 |  |
| B10 | 0.012 | 9.8e-05 |  |
| B11 | 0.014 | 8.5e-05 |  |
| B12 | 0.0091 | 0.0005 |  |
| B13 | 0.015 | 6.9e-05 |  |
| B14 | 0.022 | 4.7e-05 |  |
| B15 | 0.024 | 8.1e-05 |  |
| B16 |  |  | HUVEC proliferation, % inhibition [2]: 95%; HUVEC proliferation, IC50 [2]: 220 pM; HUVEC Erk phosphorylation, % inhibition [3]: 92%; HUVEC Erk phosphorylation, IC50 [3]: 190 pM |
| B17 | 0.033 | 0.00015 |  |
| B18 | 0.033 | 0.00014 |  |

| Binder | kd(fast) [1] | kd(slow) [1] | other results |
| --- | --- | --- | --- |
| B19 | 0.027 | 0.00013 |  |
| B20 | 0.041 | 0.00011 |  |
| B21 | 0.015 | 7.8e-05 |  |
| B22 | 0.038 | 9e-05 |  |
| B23 | 0.014 | 0.00029 |  |
| B24 | 0.016 | 0.00013 |  |
| B25 | 0.017 | 0.00013 |  |
| B26 | 0.037 | 4e-05 |  |
| B27 | 0.037 | 0.00015 |  |
| B28 | 0.037 | 9.3e-05 |  |
| B29 | 0.028 | 8.6e-05 |  |
| B30 | 0.018 | 0.00032 |  |
| B31 | 0.027 | 4.6e-05 |  |
| B32 | 0.016 | 0.00034 |  |
| B33 | 0.019 | 0.00024 |  |
| B34 | 0.019 | 0.00016 |  |
| B35 | 0.014 | 0.00074 |  |
